# Experimental data taken from US20090137003A1 (SYMPHOGEN A S, published 2009).
# Assays:
# Test in all cases: cell-based or functional assay
# [1] = target: T1, RSV protein F of strain B Wash/18537 (RSV B Wash/18537 (ATCC number VR-1580), UniProt P13843 26-574)
# [2] = target: T2, RSV protein F of strain A2 (RSV A2 (ATCC number VR-1540), UniProt P03420 26-574)
# [3] = target: T3, RSV protein F of strain Long (RSV Long (ATCC number VR-26), UniProt P12568 26-574)
# [4] = target: T1, RSV protein F of strain B Wash/18537; remark: listed apart in the source
# [5] = target: T2, RSV protein F of strain A2; remark: listed apart in the source
# [6] = target: T3, RSV protein F of strain Long; remark: listed apart in the source
# T1 sequence (P13843 26-574): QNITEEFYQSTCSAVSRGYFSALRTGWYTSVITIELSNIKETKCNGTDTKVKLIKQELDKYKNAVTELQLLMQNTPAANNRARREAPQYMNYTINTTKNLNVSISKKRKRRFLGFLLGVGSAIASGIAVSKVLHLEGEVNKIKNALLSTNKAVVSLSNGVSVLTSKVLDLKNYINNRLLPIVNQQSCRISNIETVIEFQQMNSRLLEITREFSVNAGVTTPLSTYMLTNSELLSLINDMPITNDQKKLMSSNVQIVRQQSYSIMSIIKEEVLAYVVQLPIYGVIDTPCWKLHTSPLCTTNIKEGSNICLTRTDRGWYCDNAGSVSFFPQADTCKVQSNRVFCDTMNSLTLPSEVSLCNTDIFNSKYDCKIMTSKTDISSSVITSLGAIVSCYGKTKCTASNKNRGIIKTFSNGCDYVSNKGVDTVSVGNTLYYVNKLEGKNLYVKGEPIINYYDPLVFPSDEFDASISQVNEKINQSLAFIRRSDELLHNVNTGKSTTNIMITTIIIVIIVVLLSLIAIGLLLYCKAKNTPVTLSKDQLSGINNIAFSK
# T3 sequence (P12568 26-574): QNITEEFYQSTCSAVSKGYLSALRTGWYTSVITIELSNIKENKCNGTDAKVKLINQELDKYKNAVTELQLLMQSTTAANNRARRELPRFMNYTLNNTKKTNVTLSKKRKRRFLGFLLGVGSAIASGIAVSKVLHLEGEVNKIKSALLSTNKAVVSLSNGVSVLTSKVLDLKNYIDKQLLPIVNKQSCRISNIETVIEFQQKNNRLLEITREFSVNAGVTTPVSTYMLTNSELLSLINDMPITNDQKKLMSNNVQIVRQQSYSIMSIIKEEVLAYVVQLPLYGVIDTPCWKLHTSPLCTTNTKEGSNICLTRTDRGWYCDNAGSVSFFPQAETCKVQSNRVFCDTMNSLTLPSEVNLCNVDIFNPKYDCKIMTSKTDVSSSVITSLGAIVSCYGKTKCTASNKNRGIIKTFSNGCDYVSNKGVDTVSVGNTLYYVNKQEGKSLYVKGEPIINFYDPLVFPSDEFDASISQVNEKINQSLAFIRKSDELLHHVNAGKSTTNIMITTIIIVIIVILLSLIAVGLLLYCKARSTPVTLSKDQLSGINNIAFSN
# T2 sequence (P03420 26-574): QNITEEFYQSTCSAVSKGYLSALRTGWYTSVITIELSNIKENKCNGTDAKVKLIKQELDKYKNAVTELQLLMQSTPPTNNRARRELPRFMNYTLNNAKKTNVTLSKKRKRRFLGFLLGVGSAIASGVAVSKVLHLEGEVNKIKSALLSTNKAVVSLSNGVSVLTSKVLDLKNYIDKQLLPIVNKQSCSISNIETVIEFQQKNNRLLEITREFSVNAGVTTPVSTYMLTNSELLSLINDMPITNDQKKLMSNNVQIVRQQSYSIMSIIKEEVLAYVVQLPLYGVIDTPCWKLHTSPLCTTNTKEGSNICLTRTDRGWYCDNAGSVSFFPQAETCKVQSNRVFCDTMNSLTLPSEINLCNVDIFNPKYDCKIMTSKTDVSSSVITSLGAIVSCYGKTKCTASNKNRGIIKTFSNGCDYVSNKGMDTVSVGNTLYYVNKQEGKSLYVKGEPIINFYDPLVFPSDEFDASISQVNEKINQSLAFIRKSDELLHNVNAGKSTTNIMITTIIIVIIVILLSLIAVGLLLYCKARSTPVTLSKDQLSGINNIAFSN
binder,measurement,setting,value
"Palivizumab (Synagis) (antibody, V domains shown) VH: QVTLRESGPALVKPTQTLTLTCTFSGFSLSTSGMSVGWIRQPPGKALEWLADIWWDDKKDYNPSLKSRLTISKDTSKNQVVLKVTNMDPADTATYYCARSMITNWYFDVWGAGTTVTVSS VL: DIQMTQSPSTLSASVGDRVTITCKCQLSVGYMHWYQQKPGKAPKLLIYDTSKLASGVPSRFSGSGSGTEFTLTISSLQPDDFATYYCFQGSGYPFTFGGGTKLEIK","PRNT EC50 with complement, RSV 18537",[1],0.2 mg/L
same,"PRNT EC50 with complement, RSV A2",[2],0.15 mg/L
same,"PRNT EC50 with complement, RSV Long",[3],0.14 mg/L
same,"EC50 value (µg/ml), PRNT (plaque reduction neutralization) against RSV strain 18537",[4],0.2 µg/mL
same,"EC50 value (µg/ml), PRNT (plaque reduction neutralization) against RSV strain A2",[5],0.15 µg/mL
same,"EC50 value (µg/ml), PRNT (plaque reduction neutralization) against RSV strain Long",[6],0.14 µg/mL
